The source of these data is paper PMC12016518.

The data set concerns the target T1, VPA1365-His (Vibrio parahaemolyticus RIMD2210633) (UniProt Q87GF1).
T1 sequence: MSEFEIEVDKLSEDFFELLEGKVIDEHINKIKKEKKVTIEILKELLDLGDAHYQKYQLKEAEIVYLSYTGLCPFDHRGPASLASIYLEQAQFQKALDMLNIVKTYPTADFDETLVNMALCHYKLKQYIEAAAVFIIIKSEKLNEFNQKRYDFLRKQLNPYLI
Kind of data set: EMSA. As to conditions: EMSA: 30 nM 5'-FAM probe, 20 µL with 4 µL 5x buffer (10 mM NaCl, 0.1 mM DTT, 0.1 mM EDTA, 10 mM Tris, pH 7.4; unclear if 5x or final), 25°C, 0.5 h, 6% PAGE. A general note: In EMSA bound probe runs differently from free probe, usually more slowly.
With “TGCCTGCAGGTCGACGATCACAAGCAACAAAATTCATATTACTTCAACTAACTCAGTAAGTTGTAAGTAATTCATCATTAAAAAGGGCCACTAGGCCCTTTCTTTTTATCCATTAAAAAATAGCATTACTCGCAAAACTCTGCATACGATATGCAACTTTCTACCAAAGAGTTTTACCTCACTCGAGACCCCATCTCTTCCCCATTTTCAACCTTTATGAAGTCTCCATAATCCTTCGCTAATGCAAGGGCATTATTTATTTCATTAAGAAGGAAAG (double strand) [pilA promoter]”, the binding entry was “binds”.

Consider “CGCTCTATAATGCTGACCCTTTTATCAATACTGTACTTATTTCCACAACAAAAAAGCGTACAGTTATTTACTTTTTTACCTTTAACTTGCTGTGAAAATAATATCGTCGACCTGCAGGCA (double strand) [mshA promoter]”, for which the binding result is recorded as “binds”.

With “GCGCATAGCTGTTATAAGAATCCTCAATTCATTTCAATTAATGAGTATTCAGTCAATTAATAGAGCGATTTACTTCATAAAACCATTTTATTTTTATGGACTTAGCTCAAGAAATGACAGCATTATTAACTAATTTTAATAATTTGAGGAATGCATCAATAACTATTTCATATAAACACGATTTACTGTTGACTAAGTTTTATAAATATCGATGATCAGCAAGTTAAACTGAACGAAGTTTTATTCATTTGAAAGCGCAAGAACATGACTATCGTCGACCTGCAGGCA (double strand) [scrG promoter (PscrG)]”, the binding entry was “binds”.
